# Measured values reported in US12186353B2, “Method of reducing neuronal microtubule binding protein Tau (Tau) levels” (ADAERATA, LIMITED PARTNERSHIP, priority 2018, dated 2025).
# How the values were obtained:
# Format in all cases: cell-based
# Tau [1] = experiment: Western blot of Tau fusion protein levels in HEK293T cells co-expressing Numb isoforms; settings: 48 hours after transfection
# Text: (§1) FIGS. 6A-I: Isoform Numb-72 interacts with Tau and regulates Tau level. FIG. 6A. Schematic of 4 Numb isoforms, differing with the presence or the absence of an insertion (arrowhead) in PTB domain arrowhead, and the presence or the absence of an insertion in the proline-rich region (PRR). FIG. 6B. Coimmunoprecipitation of Tau and 4 isoforms of Numb in HEK293 cells. Each Numb isoform was transfected in HEK293T cells together with a flag-tagged version of Tau and immunoprecipitation was perform 24 hours later with a flag antibody and blotted for Numb. […] FIG. 6C. Detection of Tau::GFP level in presence of 4 isoforms of Numb by western blot in HEK293. All the Numb isoforms were transfected with a Tau::GFP fusion protein in HEK293T cells and the levels of Tau::GFP was analysed by western blot 48 hours after transfection. FIG. 6D. Schematic representation of DNA construct of a human-medulloblastoma-derived cell line (DAOY) expressing human Tau fused with EGFP (Lasagna-Reeves et al., 2016). Additionally, this cell line expresses DsRed upstream of an internal ribosomal entry site (IRES), which is translated independently of the Tau-GFP protein. DsRed-IRES-Tau::EGFP expressing cells were used to assess the abundance of Tau by monitoring the Tau-GFP to DsRed fluorescence ratio. FIG. 6E. DsRed and Tau::EGF expression in Daoy cells, transfected with Myc only construct. FIGS. 6F-J. Fluorescence-activated cell sorting (FACs) analysis of the 4 Numb isoforms affected 3 days after transfection on ratio DsRed versus DsRed and GFP-positives cells compared to the control (Myc-Tag). FIG. 6K Quantification represents fold change for 5 experiments, +/− SEM, **p≤0.001; n.s. non-significant Anova 1-way test.
# Numb72::Myc. HEK293T cells were transfected with Jet Prime using the following constructs Tau::Flag, Tau::GFP, Numb65, Numb66, Numb71 and Numb72.
# Cells were harvested, and lysed in a NP-40 buffer (50 mm TRIS, pH 8.0, 150 mm NaCl, 1.0% NP-40 with Complete Protease Inhibitor Cocktail (Roche)). For immunoblotting, 40 μg of protein samples for in vivo blot and 10 ug for in vitro blot were loaded on a 10% acrylamide SDS-PAGE gels for separation by electrophoresis migration and then transferred onto PVDF membranes using transblot machine (Millipore). […] The primary antibody was detected with an HRP-conjugated goat anti-rabbit (1:10,000; Jackson Immunoresearch) in 0.5% dry milk in TBST. […]
# To determine whether increasing the levels of Numb could affect the levels of Tau, the inventors co-expressed all isoforms of Numb together with a Tau::Venus fusion protein in HEK293T cells and analyzed the levels of Tau::Venus by western blot 48 hours after transfection.
# Tau [2] = experiment: Dot blot of monomeric and oligomeric Tau in the media of HEK293T cells expressing Tau; settings: media collected 24 h after doxycycline, vs GFP control
# Method: FIGS. 9A-B: Numb72 stimulates secretion of the monomeric form of Tau in the extracellular media in cell lines, but not oligomeric (toxic) Tau. FIG. 9A. Dot blot of monomeric Tau levels (5A6) and oligomer of Tau (T22) in the media of HEK293T stable inducible cells line expressing Tau transfected with either GFP (Control) or Numb72. Tau expression was activated by adding Doxycycline 6 h after transfection and the media collected 24 h later for Dot-blot. FIG. 9B. Quantification of extracellular Tau levels; data are mean±SEM, n.s non-significant; *p<0.05. Student's t test, n=6 for Tau5A6 and n=4 for T22.
# The impact of Numb on the secretion of monomeric and oligomeric Tau was assessed. A cell line (HEK293T) expressing Tau was transfected with either GFP (Control) or Numb72, and the monomeric Tau (5A6) and oligomeric Tau (T22) levels were assessed in the cell media by dot blot assay on the collected culture medium.
# human Tau fused with GFP = experiment: Flow cytometry of Tau-GFP over DsRed in DAOY cells transfected with Numb isoforms; settings: three days after transfection, compared to controls (Myc-Tag)
# Text: as §1, with “Schematic representation of DNA construct of a human-medulloblastoma-derived cell line (DAOY) expressing human Tau fused with EGFP (Lasagna-Reeves et al., 2016). Additionally, this cell line expresses DsRed upstream of an internal ribosomal entry site (IRES), which is translated independently of the Tau-GFP protein.” left out, “FIG. 6E. DsRed and Tau::EGF expression in Daoy cells, transfected with Myc only construct.” left out, “test. […]” for “test.”
# Tau::GFP fusion protein = experiment: Intracellular Tau::GFP fluorescence in stable inducible HEK293 cells with proteasome or lysosome inhibitor; settings: stable inducible HEK293, Numb72 vs control empty vector, fixed 48 h after doxycycline
# Method: FIG. 7A Stable inducible cell line HEK293 that express a Tau::GFP fusion protein was transfected with Control Myc or Numb72::Myc, and the Tau::GFP expression was activated by adding Doxycycline 6 h later. The cells were fixed 48 h later and stained for Myc. FIG. 7B. The mean intensity (±SEM) of intracellular Tau::GFP fluorescence in transfected cells was quantified. Cells were treated with vehicle, MG132 (a proteasome inhibitor, 25 uM) or Chloroquine (a lysosome inhibitor, 25 uM) for 4 h before fixation and Myc staining. Quantification represents mean intensity +/− SEM, *p≤0.01; Anova 1-way test.
# The potential role of the proteasome and of the lysosome on the ability of Numb to reduce Tau levels was assessed. A stable inducible cell line (HEK293) expressing a Tau::GFP fusion protein was transfected with
# Numb72 or a control empty vector. The intracellular Tau::GFP levels was compared when the cells were treated with a proteasome inhibitor (MG132), a lysosome inhibitor (Chloroquine) or a control (vehicle). […] (FIGS. 7A-B).
molecule,measurement,setting,value
"Numb-72: 72 kDa Numb isoform with long PTB domain and long PRR; human isoform 1 (SEQ ID NO: 1); expressed by transfection (protein, homo sapiens, 72 kDa Numb isoform with long PTB domain and long PRR; expressed by transfection) MNKLRQSFRRKKDVYVPEASRPHQWQTDEEGVRTGKCSFPVKYLGHVEVDESRGMHICEDAVKRLKAERKFFKGFFGKTGKKAVKAVLWVSADGLRVVDEKTKDLIVDQTIEKVSFCAPDRNFDRAFSYICRDGTTRRWICHCFMAVKDTGERLSHAVGCAFAACLERKQKREKECGVTATFDASRTTFTREGSFRVTTATEQAEREEIMKQMQDAKKAETDKIVVGSSVAPGNTAPSPSSPTSPTSDATTSLEMNNPHAIPRRHAPIEQLARQGSFRGFPALSQKMSPFKRQLSLRINELPSTMQRKTDFPIKNAVPEVEGEAESISSLCSQITNAFSTPEDPFSSAPMTKPVTVVAPQSPTFQANGTDSAFHVLAKPAHTALAPVAMPVRETNPWAHAPDAANKEIAATCSGTEWGQSSGAASPGLFQAGHRRTPSEADRWLEEVSKSVRAQQPQASAAPLQPVLQPPPPTAISQPASPFQGNAFLTSQPVPVGVVPALQPAFVPAQSYPVANGMPYPAPNVPVVGITPSQMVANVFGTAGHPQAAHPHQSPSLVRQQTFPHYEASSATTSPFFKPPAQHLNGSAAFNGVDDGRLASADRHTEVPTGTCPVDPFEAQWAALENKSKQRTNPSPTNPFSSDLQKTFEIEL",levels of Tau::Venus by western blot,Tau [1],significantly reduced the levels of Tau
same,secretion of monomeric Tau (5A6) in the cell media,Tau [2],stimulates the secretion of monomeric Tau
same,secretion of oligomeric Tau (T22) in the cell media,Tau [2],not of toxic (oligomeric) Tau
same,proportion of cells with low levels of Tau-GFP (Tau-GFP over DsRed),human Tau fused with GFP,increased the proportion of cells with low levels of Tau-GFP
same,intracellular Tau::GFP levels,Tau::GFP fusion protein,induced a decrease of Tau::GFP levels
